Measured values published in patent US7772181B2, “Personal care compositions comprising modified variant Bowman Birk Protease Inhibitors” (Danisco US Inc., priority 2008, dated 2010).

Key:
[1] = molecular target: T1, bovine pancreatic trypsin (Bos taurus, UniProt P00760); assay: Shake flask screen: trypsin inhibition after growth, 2-mercaptoethanol activation and acid/heat treatment; type: biochemical; details: when not activated
T1 construct: purchased Worthington (Worthington Biochemical Corp.)
T1 sequence (P00760 24-246): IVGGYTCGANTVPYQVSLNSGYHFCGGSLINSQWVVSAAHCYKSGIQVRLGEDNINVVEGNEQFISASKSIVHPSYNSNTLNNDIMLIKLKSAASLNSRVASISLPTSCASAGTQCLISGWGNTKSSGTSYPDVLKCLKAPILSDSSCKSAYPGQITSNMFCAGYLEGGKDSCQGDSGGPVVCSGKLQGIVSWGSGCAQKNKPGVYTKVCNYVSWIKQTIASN

TGFβ = TGFβ (Homo sapiens, UniProt P01137); assay: BioVeris competition binding assay, TGFβ; details: Target protein TGFβ1, concentration reducing BioVeris signal by one half, read-out: BioVeris Binding (apparent IC50)
Protocol: (§1) The resulting vectors were used to transform B. subtilis BG6006 host cells. Cultures were grown in 500 ml of MBD medium and the BBI species were purified essentially as described above and by Vogtentanz et al., 2007 (Protein Expr Purif 55:40-52 [2007]). BioVeris binding assays were performed essentially as outlined in Example 5 and by the manufacturer. Binding of the modified variant BBIs to their respective target proteins was measured using a BioVeris® binding assay, which is a competition assay that determines the binding of the modified variant BBIs to its target protein (e.g. VEGF, FGF5, TGFβ and TNFα) in the presence or absence of a labeled competitor. The competitor can be a labeled monoclonal antibody raised against the target protein or a labeled native receptor of the target protein. The electrochemiluminescent binding assays were performed essentially as described in Example 5. The apparent IC50s were determined from binding data by determining the concentration of the BBI species needed to reduce the BioVeris signal by one half. BBI scaffolds without the target binding peptide in the chymotrypsin inhibitory loop were used as negative controls.

[2] = molecular target: T2, bovine pancreatic chymotrypsin (Bos taurus, UniProt P00766); assay: Chymotrypsin inhibition assay (BBI activity); type: biochemical; details: BCE103 fusion protein in cell free broth
T2 construct: purchased Worthington
Protocol: (§2) Trypsin inhibitory assays were performed in Assay Buffer to determine the BBI activity. Specifically, a standard curve was generated by making eleven 1:1 serial dilutions (100 μL BBI+100 μL Assay Buffer) of a 2 μg/mL standard BBI solution. The BBI standard was purified from a 1 mg/ml Trypsin-Chymotrypsin Inhibitor (Sigma Cat. #T-9777) solution in 20 mM MES pH 6.0 using a hydrophobic interaction column (POROS HP2, Phenyl column, Applied Biosystems). The column was equilibrated with 20 mM MES pH 6.0, loaded with 5 mg of the inhibitor, washed with the equilibration buffer, and then the BBI was eluted with water. […] After the incubation, 100 μL of the 0.5 mg/ml trypsin substrate (diluted in Assay Buffer from a 100 mg/ml solution in DMSO), Suc-AAPR-pNA (succinyl-Ala-Ala-Pro-Arg-para-nitroanilide, Bachem), was added, mixed and the OD (A405) was monitored for 15 min, with 1 time point recorded every 12 sec using a Spectra Max 250 (Molecular Devices). […] The BBI concentration of the unknown samples was calculated from the standard curve. Alternatively, the BBI activity was measured using the same protocol but by determining bovine pancreatic chymotrypsin (Worthington) inhibition (chymotrypsin was used at the same concentration as trypsin and chymotrypsin activity was measured by adding 100 μL of a 0.4 mg/ml chymotrypsin substrate, succinyl-Ala-Ala-Pro-Phe-para-nitroanilide, Bachem).

VegF = molecular target: T3, VegF (UniProt P15692); assay: BioVeris electrochemiluminescence competition binding assay, VEGF; details: for competition with Anti-VegF antibody for binding to VegF (ECL signal): labeled Anti-VegF antibody, biotinylated VegF
T3 sequence (P15692 207-395): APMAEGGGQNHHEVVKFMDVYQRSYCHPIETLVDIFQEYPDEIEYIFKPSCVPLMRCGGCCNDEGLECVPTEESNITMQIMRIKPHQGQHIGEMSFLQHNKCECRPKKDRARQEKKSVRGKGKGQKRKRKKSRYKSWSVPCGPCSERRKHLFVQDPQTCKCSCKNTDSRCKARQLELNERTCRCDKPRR
Protocol: Briefly, after cleavage, the pH of the cleaved sample was adjusted to 5.5, the sample was then loaded onto the column (equilibrated with 25 mM MES pH 5.5). The free 2BBIck81 was washed through the column using 25 mM sodium acetate pH 5.0 while the BCE103 catalytic core remained bound to the resin. The 2BBIck81 fraction was concentrated by ultrafiltration and analyzed using an electrochemiluminescence (ECL) based binding assay (BioVeris). The Anti-VegF antibody (Santa Cruz) and VegF (PeproTech) were labeled with the electrochemiluminescent dye and biotin, respectively, as described by the manufacturer (BioVeris). All materials were in Dulbecco's PBS (Mediatech) supplemented with 0.1% TWEEN®-80. An initial dilution series of Anti-VegF antibody (125, 250 and 500 ng/ml) and VegF (100, 150, 200 and 250 ng/ml) were tested in the binding assay to determine the concentrations of each that would give a robust ECL signal.
For testing 2BBIck81 binding, 50 μL of 500 ng/ml ECL labeled Anti-VegF antibody, 50 μL of 250 ng/ml biotinylated VegF and 100 μL 2BBIck81 (series of 12.5, 15, 31.25, 62.5, 125, 250 or 500 ng/ml) were incubated at room temperature for 2 h with shaking. Then, 50 μL of 0.2 mg/ml streptavidin coated beads were added and the reaction was incubated at room temperature for 30 minutes. The ECL signal was measured using a BioVeris M8/384 Analyzer as described by the manufacturer (BioVeris).
as §1

[3] = molecular target: T1, bovine pancreatic trypsin; assay: Trypsin inhibitory assay (BBI activity); type: biochemical
Protocol: as §2, with “water. Unknown BBI samples to be tested in the inhibitory assay were diluted as necessary, so that two or more data points would fall within the standard curve (usually 1:10, 1:100, 1:200, 1:1000, 1:2000 sample dilutions were tested and then the dilutions fine tuned if necessary).” for “water.”
The relative concentration of active control and modified BBIt-AV's was determined by a trypsin inhibitory assay using purified sBBI as a standard as described above. For some samples, the active BBI concentration was measured by residual trypsin activity according to the method described by Flecker (Flecker, P. FEBS Lett. 252:153-157 [1989]; Vogtentanz et al. supra). […]

human CD4+ T cells = assay: i-mune assay for peptide T-cell epitopes; type: cell-based
Protocol: The i-mune® assay was performed for the identification of peptide T-cell epitopes in wild type BBI using naïve human T-cells, as described in WO9953038A2 and Stickler et al, 2000 (J. Immunotherapy, 23(6), 654-660, [2000]). Peptides for use in the assay were prepared based on the wild-type BBI amino acid sequence […] CYEPCKPSEDDKEN (SEQ ID NO:13). From the full length amino acid sequence of BBI, 15mer peptides were synthetically prepared by Mimotopes US West (San Diego, Calif.). Each 15mer peptide sequence was designed to overlap with the previous and subsequent 15mer, except for three residues. The 20 peptides used to screen for T-cell epitopes, corresponding to wild type BBI sequence, were:
Briefly, human CD4+ T cells were co-cultured with dendritic cells and peptide for the intact peptide set, using the peptides shown in Figure Y. Cytokine responses were averaged within each experiment as described in Strickler et al, 2000 and a response to a peptide was tabulated as positive if the stimulation index (SI) was greater than 2.95 (FIG. 18A). SI values for each donor were compiled for each peptide set and the percent of donors responsive to each peptide is shown in FIG. 18B. The percent background response, 2.89%, was determined as the average percent responders over all the peptides in the set. The standard deviation for this dataset was 2.21%. Major epitopes are defined as having a percentage response that is 3-fold or more than the background.

Chain of TGFβ (P01137 279-390): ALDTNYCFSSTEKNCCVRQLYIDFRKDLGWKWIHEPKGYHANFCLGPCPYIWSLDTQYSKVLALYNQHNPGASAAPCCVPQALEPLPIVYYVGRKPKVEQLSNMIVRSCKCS

B1: D1C: BBIt-AV (SEQ ID NO:187) with single substitution D1C (protein)
chain: CDESSKPCCDQCACTKSNPPQCRCSDMRLNSCHSACKSCACYNLYGWTCFCVDITDFCYEPCKPSE
modifications: synthetic BBIt-AV sequence
BBIt-AV yield after acid/heat treatment relative to unmodified BBIt-AV [1]: improved yields after acid/heat treatment

B2: PEN3-Q-BBIt-TGF-A40L-F50N (SEQ ID NO: 677) (protein)
chain: PSESSKPCCDQCACTKSIPPQCRCTDVRLNSCHSACSSCACYNLYGWTCVCVDMKDFCYEPCK
modifications: synthetic BBdb-AV sequence
IC50 (TGFβ): 10 to 50 µM

B3: 1 BBIck81: BBI with the CK37281 peptide in the trypsin loop (protein)
chain: DDESSKPCCDQCACYNLYGWTCRCSDMRLNSCHSACKSCICALSYPAQCFCVDITDFCYEPCKPSEDDKEN
activity of the BBI (chymotrypsin inhibition) relative to fusions to the wild-type BBI [2]: about two fold less
competition with Anti-VegF antibody for binding to VegF (ECL signal) (VegF): also competed with the Anti-VegF antibody

B4: BBI-AV: BBI with VEGF binding peptide CK37281 replacing the chymotrypsin inhibitory loop, SEQ ID NO:186 (protein)
chain: DDESSKPCCDQCACTKSNPPQCRCSDMRLNSCHSACKSCACYNLYGWTCFCVDITDFCYEPCKPSEDDKEN
modifications: synthetic BBI-AV sequence
activity of the BBI (trypsin inhibition) relative to fusions to the wild-type BBI ([3]; BCE103 fusion protein in cell free broth): about two fold less
competition for VegF binding compared with synthesized CK37281 peptide (VegF): better than the synthesized CK37281 peptide itself
competition with Anti-VegF antibody for binding to VegF (ECL signal) (VegF): shown to compete
competition with Anti-VegF antibody for binding to VegF (ECL signal) (VegF; listed as 2BBIck81): competed with the Anti-VegF antibody for binding to VegF at micromolar concentrations

B5: BBI: soybean Bowman-Birk protease inhibitor from Glycine max, major mature form, SEQ ID NO:13 (protein)
chain: DDESSKPCCDQCACTKSNPPQCRCSDMRLNSCHSACKSCICALSYPAQCFCVDITDFCYEPCKPSEDDKEN
modifications: Glycine max
activated trypsin inhibitory activity, % of expected based on BCE103 cellulase concentration ([3]; 2 mM BME and 0.2 mM GSSG, about 24 h, room temperature): 70-100%
activity of the BBI after growth versus expected from BCE103 cellulase activity ([3]; cell free supernatants, trypsin or chymotrypsin inhibition, before activation): 5-20 times lower
immunogenicity potential in humans (human CD4+ T cells): low immunogenicity potential
percent background response (average percent responders over all the peptides) (human CD4+ T cells; 20 overlapping 15mer peptides, 71 donors): 2.89%
peptide T-cell epitope responses (human CD4+ T cells; stimulation index > 2.95 positive, major epitope 3-fold or more over background): none of the peptide responses were significant
